Experimental data published in patent publication US20110301228A1.

Target: 5-FAM/QXL520 labeled MMP substrate FRET peptide (SensoLyte 520 MMP-1 Assay Kit, AnaSpec)
Assay: cell-based or functional assay

- relative fluorescence units released on cleavage of the FRET peptide (medium of AdhGRE.MMP1-infected, DEX-treated cells) (relative fluorescence units): 59000
- relative fluorescence units released on cleavage of the FRET peptide (medium of AdhGRE.MMP1-infected, untreated cells) (relative fluorescence units): 5710
Substance: recombinant human MMP1 (wild-type), secreted by AdhGRE.MMP1-infected HTM cells and activated with APMA (active form, 41 kDa) (from UniProt P03956 100-469) (enzyme)
